One block for each binder: values may come before it.
Key:
[1] = target: T1, F-actin (rabbit skeletal α-actin, polymerized) (rabbit, UniProt P68135 1-377); test: ADP-F-actin
[2] = target: T2, bovine brain Arp2/3 complex (bovine, UniProt P61157 1-418; A7MB62 1-394; Q58CQ2 1-372; Q3MHR7 1-300; Q3T035 1-178; Q148J6 …); test: ITC; ADP-bound Arp2/3 complex
[3] = target: T2, bovine brain Arp2/3 complex; test: ITC; ATP-bound Arp2/3 complex
[4] = target: T1, F-actin (rabbit skeletal α-actin, …); test: ADP-BeF3- F-actin
[5] = target: T1, F-actin (rabbit skeletal α-actin, …); test: ADP-F-actin (- BeF3-)

B1: human Coro7 β2 (domain or fragment)
chain: KFRHAQGTVLHRDSHITNLKGLNLTTPGESDGFCANKLRVAVPLLSSGGQVAVLELRKPGRLPDTALPTLQNGAAVTDLAWDPFDPHRLAVAGEDARIRLWRVPAEGLEEVLTTPETVLTGHTEKICSLRFHPLAANVLASSSYDLTVRIWDLQAGADRLKLQGHQDQIFSLAWSPDGQQLATVCKDGRVRVYRPRSGPEPLQEGPGPKGGRGARIVWVCDGRCLLVSGFDSQSERQLLLYEAEALAGGPLAVLGLDVAPSTLLPSYDPDTGLVLLTGKGDTRVFLYELLPESPFFLECNSFTSPDPHKGLVLLPKTECDVREVELMRCLRLRQSSLEPVAFRLPRVRKEFFQDDVFPDTAVIWEPVLSAEAWLQGANGQPWLLSLQPPDMS
Kd [1]: 11 µM

B2: human Coro7 β1 (domain or fragment)
chain: MNRFRVSKFRHTEARPPRRESWISDIRAGTAPSCRNHIKSSCSLIAFNSDRPGVLGIVPLQGQGEDKRRVAHLGCHSDLVTDLDFSPFDDFLLATGSADRTVKLWRLPGPGQALPSAPGVVLGPEDLPVEVLQFHPTSDGILVSAAGTTVKVWDAAKQQPLTELAAHGDLVQSAVWSRDGALVGTACKDKQLRIFDPRTKPRASQSTQAHENSRDSRLAWMGTWEHLVSTGFNQMREREVKLWDTRFFSSALASLTLDTSLGCLVPLLDPDSGLLVLAGKGERQLYCYEVVPQQPALSPVTQCVLESVLRGAALVPRQALAVMSCEVLRVLQLSDTAIVPIGYHVPRKAVEFHEDLFPDTAGCVPATDPHSWWAGDNQQVQKVSLNPACRPHPSFTSCLV
Kd [1]: 5.5 µM

B3: human Coro7 full length (Coro7 FL) (natural protein)
chain: MNRFRVSKFRHTEARPPRRESWISDIRAGTAPSCRNHIKSSCSLIAFNSDRPGVLGIVPLQGQGEDKRRVAHLGCHSDLVTDLDFSPFDDFLLATGSADRTVKLWRLPGPGQALPSAPGVVLGPEDLPVEVLQFHPTSDGILVSAAGTTVKVWDAAKQQPLTELAAHGDLVQSAVWSRDGALVGTACKDKQLRIFDPRTKPRASQSTQAHENSRDSRLAWMGTWEHLVSTGFNQMREREVKLWDTRFFSSALASLTLDTSLGCLVPLLDPDSGLLVLAGKGERQLYCYEVVPQQPALSPVTQCVLESVLRGAALVPRQALAVMSCEVLRVLQLSDTAIVPIGYHVPRKAVEFHEDLFPDTAGCVPATDPHSWWAGDNQQVQKVSLNPACRPHPSFTSCLVPPAEPLPDTAQPAVMETPVGDADASEGFSSPPSSLTSPSTPSSLGPSLSSTSGIGTSPSLRSLQSLLGPSSKFRHAQGTVLHRDSHITNLKGLNLTTPGESDGFCANKLRVAVPLLSSGGQVAVLELRKPGRLPDTALPTLQNGAAVTDLAWDPFDPHRLAVAGEDARIRLWRVPAEGLEEVLTTPETVLTGHTEKICSLRFHPLAANVLASSSYDLTVRIWDLQAGADRLKLQGHQDQIFSLAWSPDGQQLATVCKDGRVRVYRPRSGPEPLQEGPGPKGGRGARIVWVCDGRCLLVSGFDSQSERQLLLYEAEALAGGPLAVLGLDVAPSTLLPSYDPDTGLVLLTGKGDTRVFLYELLPESPFFLECNSFTSPDPHKGLVLLPKTECDVREVELMRCLRLRQSSLEPVAFRLPRVRKEFFQDDVFPDTAVIWEPVLSAEAWLQGANGQPWLLSLQPPDMSPVSQAPREAPARRAPSSAQYLEEKSDQQKKEELLNAMVAKLGNREDPLPQDSFEGVDEDEWD
Kd [4]: 37.4 µM
Kd [1]: 9.9 µM
Kd [5]: 9.9 µM

Now from value to binder:

Kd [2]: 0.9 µM
Kd [3]: 1.9 µM
Binder: SDQQKKEELLNAMVAKLGNREDPLPQDSFEGVDEDEWD (domain or fragment) [human Coro7 CA (C-terminal Central-Acidic region of coronin 7)]

Kd [1]: 5.2 µM
B4: human Coro7 β1β2 (domain or fragment)
chain: MNRFRVSKFRHTEARPPRRESWISDIRAGTAPSCRNHIKSSCSLIAFNSDRPGVLGIVPLQGQGEDKRRVAHLGCHSDLVTDLDFSPFDDFLLATGSADRTVKLWRLPGPGQALPSAPGVVLGPEDLPVEVLQFHPTSDGILVSAAGTTVKVWDAAKQQPLTELAAHGDLVQSAVWSRDGALVGTACKDKQLRIFDPRTKPRASQSTQAHENSRDSRLAWMGTWEHLVSTGFNQMREREVKLWDTRFFSSALASLTLDTSLGCLVPLLDPDSGLLVLAGKGERQLYCYEVVPQQPALSPVTQCVLESVLRGAALVPRQALAVMSCEVLRVLQLSDTAIVPIGYHVPRKAVEFHEDLFPDTAGCVPATDPHSWWAGDNQQVQKVSLNPACRPHPSFTSCLVPPAEPLPDTAQPAVMETPVGDADASEGFSSPPSSLTSPSTPSSLGPSLSSTSGIGTSPSLRSLQSLLGPSSKFRHAQGTVLHRDSHITNLKGLNLTTPGESDGFCANKLRVAVPLLSSGGQVAVLELRKPGRLPDTALPTLQNGAAVTDLAWDPFDPHRLAVAGEDARIRLWRVPAEGLEEVLTTPETVLTGHTEKICSLRFHPLAANVLASSSYDLTVRIWDLQAGADRLKLQGHQDQIFSLAWSPDGQQLATVCKDGRVRVYRPRSGPEPLQEGPGPKGGRGARIVWVCDGRCLLVSGFDSQSERQLLLYEAEALAGGPLAVLGLDVAPSTLLPSYDPDTGLVLLTGKGDTRVFLYELLPESPFFLECNSFTSPDPHKGLVLLPKTECDVREVELMRCLRLRQSSLEPVAFRLPRVRKEFFQDDVFPDTAVIWEPVLSAEAWLQGANGQPWLLSLQPPDMS
